From paper PMC5131778 (Genes & Development, 2016)
Blank lines part the entries; values can stand above or below the molecule they belong to.

Legend:
WD40 domain of Gemin5 = molecular target: T1, WD40 domain of Gemin5 (Homo sapiens, UniProt Q8TEQ6); assay: isothermal titration calorimetry; assay type: binding
T1 sequence (Q8TEQ6 1-739): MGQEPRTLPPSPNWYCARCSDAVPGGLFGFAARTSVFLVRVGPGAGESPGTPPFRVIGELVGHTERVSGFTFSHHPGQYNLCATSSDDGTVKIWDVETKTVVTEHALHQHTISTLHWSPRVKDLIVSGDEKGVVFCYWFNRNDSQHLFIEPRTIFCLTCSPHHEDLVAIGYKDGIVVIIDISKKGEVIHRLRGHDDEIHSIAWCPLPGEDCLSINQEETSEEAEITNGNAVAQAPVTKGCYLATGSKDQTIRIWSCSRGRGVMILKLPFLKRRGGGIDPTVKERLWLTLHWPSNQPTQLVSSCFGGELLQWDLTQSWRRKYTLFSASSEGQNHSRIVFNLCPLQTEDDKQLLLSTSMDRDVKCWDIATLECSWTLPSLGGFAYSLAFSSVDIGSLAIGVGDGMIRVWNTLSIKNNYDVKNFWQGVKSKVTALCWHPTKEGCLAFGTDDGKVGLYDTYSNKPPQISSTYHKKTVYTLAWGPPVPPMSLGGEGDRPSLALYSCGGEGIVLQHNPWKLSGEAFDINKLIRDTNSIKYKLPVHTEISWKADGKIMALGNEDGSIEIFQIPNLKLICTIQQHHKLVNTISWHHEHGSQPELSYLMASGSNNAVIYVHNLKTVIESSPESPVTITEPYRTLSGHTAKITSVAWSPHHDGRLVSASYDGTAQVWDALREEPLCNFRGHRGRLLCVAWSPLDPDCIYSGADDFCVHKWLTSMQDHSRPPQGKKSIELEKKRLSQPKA

Gemin5 WD40 Y474A = Gemin5 WD40 Y474A (Homo sapiens, UniProt Q8TEQ6 1-739, Y474A); assay: ITC
Gemin5 WD40 E197A = Gemin5 WD40 E197A (Homo sapiens, UniProt Q8TEQ6 1-739, E197A); assay: ITC
Sequence of Gemin5 WD40 E197A (Q8TEQ6 1-739 E197A): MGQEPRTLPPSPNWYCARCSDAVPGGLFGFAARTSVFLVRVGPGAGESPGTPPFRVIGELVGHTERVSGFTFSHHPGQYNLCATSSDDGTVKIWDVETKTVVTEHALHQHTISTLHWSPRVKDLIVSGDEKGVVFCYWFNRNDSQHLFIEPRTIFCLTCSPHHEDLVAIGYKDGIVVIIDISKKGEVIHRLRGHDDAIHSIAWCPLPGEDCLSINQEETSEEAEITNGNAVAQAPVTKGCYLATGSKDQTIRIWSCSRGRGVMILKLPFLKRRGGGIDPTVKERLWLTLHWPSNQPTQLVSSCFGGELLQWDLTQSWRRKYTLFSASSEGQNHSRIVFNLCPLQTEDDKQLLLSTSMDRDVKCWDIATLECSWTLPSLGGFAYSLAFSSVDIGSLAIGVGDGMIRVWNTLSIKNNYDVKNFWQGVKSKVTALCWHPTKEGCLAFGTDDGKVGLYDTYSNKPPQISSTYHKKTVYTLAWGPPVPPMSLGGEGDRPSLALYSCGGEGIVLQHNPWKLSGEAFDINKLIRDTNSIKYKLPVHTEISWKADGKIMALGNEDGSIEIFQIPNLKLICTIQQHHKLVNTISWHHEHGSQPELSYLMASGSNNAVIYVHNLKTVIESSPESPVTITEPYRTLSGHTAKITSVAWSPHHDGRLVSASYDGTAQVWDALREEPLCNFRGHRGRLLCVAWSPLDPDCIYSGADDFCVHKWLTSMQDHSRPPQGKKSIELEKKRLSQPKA

Gemin5 WD40 domain [1] = molecular target: T2, Gemin5 WD40 domain (Homo sapiens, UniProt Q8TEQ6 1-739); assay: ITC
Gemin5 WD40 domain [2] = molecular target: T2, Gemin5 WD40 domain; assay: crystal structure

- Kd (WD40 domain of Gemin5): 4 µM
Molecule: C[n+]1cn([C@@H]2O[C@H](COP(=O)(O)OP(=O)(O)OP(=O)(O)OC[C@H]3O[C@@H](n4cnc5c(=O)[nH]c(N)nc54)[C@H](O)[C@@H]3O)[C@@H](O)[C@H]2O)c2nc(N)[nH]c(=O)c21 [m^7GpppG]

Molecule: AAUUUUUG (ssRNA) [pre-U4 (118-125) Sm site]
- binding result (Gemin5 WD40 Y474A): binds
- Kd (Gemin5 WD40 E197A): 40 ± 5 µM

Molecule: AAUUGUUG (ssRNA) [pre-U4 (118-125) U122G]
- binding result (Gemin5 WD40 domain [1]): no binding

Molecule: AAUUCUUG (ssRNA) [pre-U4 (118-125) U122C]
- binding result (Gemin5 WD40 domain [1]): no binding

Molecule: AAUCUUUG (ssRNA) [pre-U4 (118-125) U121C]
- Kd (Gemin5 WD40 domain [1]): 11 ± 2 µM

Molecule: AAUUUUUGAG (ssRNA) [pre-U4 (118-127) crystal RNA]
- binding result (Gemin5 WD40 domain [2]): binds

Molecule: AACUUUUG (ssRNA) [pre-U4 (118-125) U120C]
- binding result (Gemin5 WD40 domain [1]): no binding
